B1: H6K3-IgG-IL12 (1×HC) (other)
heavy 1: EVQLVQSGAEVKKPGATVKISCKASGYTFTDFTMHWVQQAPGKGLEWIGLVNPNNGGNIYAEKFQGRVTLTVDTSTSTAYMELSSLRSEDTAVYYCGRVPLYTSHGMDYWGQGTLVTVSSASTKGPSVFPLAPSSKSTSGGTAALGCLVKDYFPEPVTVSWNSGALTSGVHTFPAVLQSSGLYSLSSVVTVPSSSLGTQTYICNVNHKPSNTKVDKKVEPKSCDKTHTCPPCPAPEAAGGPSVFLFPPKPKDTLMISRTPEVTCVVVDVSHEDPEVKFNWYVDGVEVHNAKTKPREEQYASTYRVVSVLTVLHQDWLNGKEYKCKVSNKALGAPIEKTISKAKGQPREPQVYTLPPSRDELTKNQVSLWCLVKGFYPSDIAVEWESNGQPENNYKTTPPVLDSDGSFFLYSKLTVDKSRWQQGNVFSCSVMHEALHNHYTQKSLSLSPGKGGGSGGGGSGGGGSGGGGSIWELKKDVYVVELDWYPDAPGEMVVLTCDTPEEDGITWTLDQSSEVLGSGKTLTIQVKEFGDAGQYTCHKGGEVLSHSLLLLHKKEDGIWSTDILKDQKEPKNKTFLRCEAKNYSGRFTCWWLTTISTDLTFSVKSSRGSSDPQGVTCGAATLSAERVRGDNKEYEYSVECQEDSACPAAEESLPIEVMVDAVHKLKYENYTSSFFIRDIIKPDPPKNLQLKPLKNSRQVEVSWEYPDTWSTPHSYFSLTFCVQVQGKSKREKKDRVFTDKTSATVICRKNASISVRAQDRYYSSSWSEWASVPCSGGGSGGGSGGGSGGGSRNLPVATPDPGMFPCLHHSQNLLRAVSNMLQKARQTLEFYPCTSEEIDHEDITKDKTSTVEACLPLELTKNESCLNSRETSFITNGSCLASRKTSFMMALCLSSIYEDLKMYQVEFKTMNAKLLMDPKRQIFLDQNMLAVIDELMQALNFNSETVPQKSSLEEPDFYKTKIKLCILLHAFRIRAVTIDRVMSYLNAS
heavy 2: EVQLVQSGAEVKKPGATVKISCKASGYTFTDFTMHWVQQAPGKGLEWIGLVNPNNGGNIYAEKFQGRVTLTVDTSTSTAYMELSSLRSEDTAVYYCGRVPLYTSHGMDYWGQGTLVTVSSASTKGPSVFPLAPSSKSTSGGTAALGCLVKDYFPEPVTVSWNSGALTSGVHTFPAVLQSSGLYSLSSVVTVPSSSLGTQTYICNVNHKPSNTKVDKKVEPKSCDKTHTCPPCPAPEAAGGPSVFLFPPKPKDTLMISRTPEVTCVVVDVSHEDPEVKFNWYVDGVEVHNAKTKPREEQYASTYRVVSVLTVLHQDWLNGKEYKCKVSNKALGAPIEKTISKAKGQPREPQVYTLPPSRDELTKNQVSLSCAVKGFYPSDIAVEWESNGQPENNYKTTPPVLDSDGSFFLVSKLTVDKSRWQQGNVFSCSVMHEALHNHYTQKSLSLSPGK
light: EIVLTQSPATLSLSPGERATISCRASESVDSYDINSMHWYQQKPGQAPRLLIYRASHLQSGIPARFSGSGSRTDFTLTISSLEPEDFATYYCQQSNEDPLTFGQGTKLEIKRTVAAPSVFIFPPSDEQLKSGTASVVCLLNNFYPREAKVQWKVDNALQSGNSQESVTEQDSKDSTYSLSSTLTLSKADYEKHKVYACEVTHQGLSSPVTKSFNRGEC
notes: also called hCD8IgG-1×IL12 (HC); hCD8IgG-IL12 (1 × HC)
B2: rIL-12 (ligand)
alpha: RVIPVSGPARCLSQSRNLLKTTDDMVKTAREKLKHYSCTAEDIDHEDITRDQTSTLKTCLPLELHKNESCLATRETSSTTRGSCLPPQKTSLMMTLCLGSIYEDLKMYQTEFQAINAALQNHNHQQIILDKGMLVAIDELMQSLNHNGETLRQKPPVGEADPYRVKMKLCILLHAFSTRVVTINRVMGYLSSA
beta: MWELEKDVYVVEVDWTPDAPGETVNLTCDTPEEDDITWTSDQRHGVIGSGKTLTITVKEFLDAGQYTCHKGGETLSHSHLLLHKKENGIWSTEILKNFKNKTFLKCEAPNYSGRFTCSWLVQRNMDLKFNIKSSSSSPDSRAVTCGMASLSAEKVTLDQRDYEKYSVSCQEDVTCPTAEETLPIELALEARQQNKYENYSTSFFIRDIIKPDPPKNLQMKPLKNSQVEVSWEYPDSWSTPHSYFSLKFFVRIQRKKEKMKETEEGCNQKGAFLVEKTSTEVQCKGGNVCVQAQDRYYNSSCSKWACVPCRVRS
notes: also called rmIL-12; non-targeted recombinant mouse IL-12; copies: 1 + 1

Tests used:
[1] = biological target: T1, human CD8 on human T cells (human, UniProt P01732 22-235; P10966 22-210); test: flow cytometry, human PBMCs incubated 30 min at 37 C with the fusion protein, anti-IL-12, gated on CD8+ T cells
T1 construct: whole, on cells; Target as carried by human CD3+/CD8+ T cells, PBMCs or MART-1-specific T cells; the mice were immunized with human CD8a; also called hCD8; CD8 expressed on the cell surface
T1 sequence (P01732 22-235, chain 1 of 2): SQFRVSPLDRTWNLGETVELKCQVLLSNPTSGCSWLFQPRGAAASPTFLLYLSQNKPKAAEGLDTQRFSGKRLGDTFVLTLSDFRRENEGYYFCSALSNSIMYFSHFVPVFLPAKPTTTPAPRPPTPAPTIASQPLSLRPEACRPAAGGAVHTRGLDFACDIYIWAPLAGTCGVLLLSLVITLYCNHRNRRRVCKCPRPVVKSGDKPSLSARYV
T1 sequence (P10966 22-210, chain 2 of 2): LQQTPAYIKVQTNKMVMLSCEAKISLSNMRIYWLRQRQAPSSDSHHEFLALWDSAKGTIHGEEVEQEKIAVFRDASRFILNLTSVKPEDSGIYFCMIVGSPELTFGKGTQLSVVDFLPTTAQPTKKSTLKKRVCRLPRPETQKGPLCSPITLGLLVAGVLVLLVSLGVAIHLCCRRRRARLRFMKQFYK
Description: (§1) Fusion proteins H6K3-IgG-IL12 (LC) and H6K3-IgG-IL12 (1×HC) were also evaluated for their ability to bind CD8-expressing cells in human and cynomolgus monkey PBMCs. Briefly, 5×10⁴ human PBMCs (StemCell Technologies) or cynomolgus monkey PBMCs (iQ Biosciences) were incubated with 7 serial 5-fold dilutions of one of the two aforementioned H6K3-IgG-IL12 constructs for 30 minutes at 37° C. Cells were washed twice with MACS buffer and stained with viability dye and fluorophore-conjugated antibodies against IL-12 and cell-surface markers for 20 minutes at 4° C. Cells were analyzed on a FACSCelesta using Diva software (BD Biosciences). Binding activity for all treatments was quantified and represented as the mean fluorescence intensity values of IL-12 on human CD8+ T cells and NK cells (FIGS. 17A-17B) and on cynomolgus monkey CD8+ T cells and NK cells (FIGS. 17C-17D). For the H6K3-IgG-IL12 (LC) treatments, results are also reported as the frequency of IL-12+CD8+ T cells and NK cells (FIG. 17E). As shown in FIGS. 17A-17D, both H6K3-IgG-IL12 (LC) and H6K3-IgG-IL12 (1×HC) were able to selectively bind human CD8+ T cells over NK cells at a range of concentrations. Only a small proportion of human NK cells express CD8, and therefore the H6K3-IgG-IL12 (LC) construct only bound a small proportion of human NK cells (FIG. 17E upper left and upper right). […]

[2] = biological target: T1, human CD8 on human T cells; test: flow cytometry, human PBMCs incubated 30 min at 37 C with the fusion protein, AF647 anti-human IL-12, gated on CD8+ T cells
Description: Fusion proteins H6K3-IgG-IL12 (LC) and H6K3-IgG-IL12 (1×HC) were evaluated for their ability to selectively bind human CD8+ T cells in PBMCs. Briefly, 5×10⁴ human PBMCs (StemCell Technologies) were incubated with 7 serial 5-fold dilutions of one of the two aforementioned H6K3-IgG-IL12 constructs for 30 minutes at 37° C. Cells were washed twice with MACS buffer and stained for 20 minutes at 4° C. with fluorophore-conjugated anti-CD3, anti-CD4, anti-CD8, anti-CD56, and anti-IL12 antibodies, and viability dye. Cells were analyzed on a FACSCelesta using Diva software (BD Biosciences). Binding activity was quantified and represented as the mean fluorescent intensity values of IL-12 on either CD8+ T cells or NK Cells. As shown in FIGS. 16A-16B, both H6K3-IgG-IL12 (LC) and H6K3-IgG-IL12 (1×HC) were able to selectively bind human CD8+ T cells over NK cells at a range of concentrations.

[3] = biological target: T2, cynomolgus monkey CD8 on cynomolgus cells (cynomolgus monkey); test: flow cytometry, cynomolgus PBMCs incubated 30 min at 37 C with the fusion protein, anti-IL-12, gated on NK cells, which express CD8 in the cynomolgus monkey
T2 construct: whole, on cells; also called cynomolgus CD8
Description: as §1

[4] = biological target: T2, cynomolgus monkey CD8 on cynomolgus …; test: cell-based or functional assay
[5] = biological target: T2, cynomolgus monkey CD8 on cynomolgus …; test: flow cytometry, cynomolgus PBMCs incubated 30 min at 37 C with the fusion protein, anti-IL-12, gated on CD8+ T cells
Description: as §1

[6] = biological target: T1, human CD8 on human T cells; test: cell-based or functional assay
mouse CD8 on mouse cells = biological target: T3, mouse CD8 on mouse cells (mouse, UniProt P01731 28-247); test: in vivo, B16F10 tumour-bearing mice, flow cytometry of peripheral blood 4 days after the first i.v. dose; % IL-12p40+ of CD8+ T cells
T3 construct: whole, on cells; Carried by CD8+ T cells and CD8+ dendritic cells of C57BL/6 mice, read ex vivo after dosing; also called mCD8
T3 sequence (P01731 28-247): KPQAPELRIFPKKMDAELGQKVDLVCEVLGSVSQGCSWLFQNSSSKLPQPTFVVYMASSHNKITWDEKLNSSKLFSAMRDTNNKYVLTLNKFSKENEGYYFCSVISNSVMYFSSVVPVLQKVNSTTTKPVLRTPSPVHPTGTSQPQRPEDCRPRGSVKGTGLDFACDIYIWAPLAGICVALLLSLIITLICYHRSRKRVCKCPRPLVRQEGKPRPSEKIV
Description: Mice were injected weekly for a total of 4 doses, at a dose equivalent to 10 μg of recombinant IL12. Tumor volume was measured twice per week, and mice were euthanized if tumor volume exceeded 2000 mm³. […] Specifically, in the MC38 model, treatment with the CD8IgG-IL12 (LC) Clone 2 construct controlled tumor growth up to day 21 and yielded 3/8 complete responders, whereas treatment with the CD8IgG-IL12 (1×HC) construct controlled tumor growth for the entire duration of the study and yielded 7/8 complete responders (FIGS. 6A-6C). In the B16-F10 model, which is typically less responsive to immunotherapy, both constructs limited tumor growth for up to 14 days after the initial dose (FIGS. 7A-7C).
In the same study, the two anti-CD8:IL-12 fusion constructs were also evaluated for their ability to be retained in tissues. Peripheral blood cells were collected from MC38 and B16-F10 tumor-bearing mice 4 days after administration of the first dose of the IL-12 construct. Samples were analyzed by flow cytometry. In the case of the MC38 tumor-bearing mice, IL-12 was detected on the surface of CD8⁺ T cells 4 days post-treatment with either of the two anti-CD8:IL-12 fusion protein constructs, but not on the surface of CD4⁺ T cells or NK cells (FIG. 8A). […]

Binder | EC50 (read off the curve) [1] | EC50 (read off the curve) [2] | EC50 (read off the curve) [3] | EC50 for stimulation of pSTAT4 signaling, cynomolgus CD8+ T cells in activated PBMCs [4] | EC50 for stimulation of pSTAT4 signaling, cynomolgus NK cells in activated PBMCs [4] | EC50 (read off the curve) [5] | EC50 for stimulation of pSTAT4 signaling, human CD8+ T cells in activated PBMCs [6] | binding result (mouse CD8 on mouse cells)
B1 | ~0.04 nM | ~0.06 nM | ~0.09 nM | 2.3 pM | 2 pM | ~0.05 nM | 2.3 pM | –
B2 | – | – | – | – | – | – | – | no binding

From US20250101107A1 (REPERTOIRE IMMUNE MEDICINES, published 2025)
